T1: GFP-9S library array, motif 4 ND N98T;D124P (synthetic construct, N98T;D124P)
T1 chain: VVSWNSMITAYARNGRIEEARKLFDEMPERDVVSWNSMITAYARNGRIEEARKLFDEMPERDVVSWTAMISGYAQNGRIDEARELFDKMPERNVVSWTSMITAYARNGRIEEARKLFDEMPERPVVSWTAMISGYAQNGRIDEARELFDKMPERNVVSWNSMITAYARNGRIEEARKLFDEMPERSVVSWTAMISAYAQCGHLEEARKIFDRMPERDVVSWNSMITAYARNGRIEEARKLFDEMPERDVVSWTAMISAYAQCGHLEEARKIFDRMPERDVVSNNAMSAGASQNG

T2: GFP-9S library array, motif 4 ND N98P;D124W (synthetic construct, N98P;D124W)
T2 chain: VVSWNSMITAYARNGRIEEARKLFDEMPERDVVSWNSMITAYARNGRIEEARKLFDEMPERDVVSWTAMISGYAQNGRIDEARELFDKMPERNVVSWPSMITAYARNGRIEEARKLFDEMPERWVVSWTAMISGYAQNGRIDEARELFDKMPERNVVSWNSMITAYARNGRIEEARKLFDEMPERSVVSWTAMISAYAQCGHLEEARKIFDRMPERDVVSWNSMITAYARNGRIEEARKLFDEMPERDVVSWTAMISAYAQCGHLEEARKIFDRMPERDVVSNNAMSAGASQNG

T3: GFP-9S library array, motif 4 ND N98R;D124A (synthetic construct, N98R;D124A)
T3 chain: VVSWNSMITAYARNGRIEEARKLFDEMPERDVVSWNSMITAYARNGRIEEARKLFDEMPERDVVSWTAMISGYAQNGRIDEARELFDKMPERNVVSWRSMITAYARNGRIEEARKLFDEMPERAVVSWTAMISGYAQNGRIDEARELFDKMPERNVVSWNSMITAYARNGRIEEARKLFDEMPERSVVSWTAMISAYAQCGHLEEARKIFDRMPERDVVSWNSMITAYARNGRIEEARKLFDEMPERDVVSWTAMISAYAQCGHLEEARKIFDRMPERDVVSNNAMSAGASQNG

T4: GFP-9S library array, motif 4 ND N98E;D124E (synthetic construct, N98E;D124E)
T4 chain: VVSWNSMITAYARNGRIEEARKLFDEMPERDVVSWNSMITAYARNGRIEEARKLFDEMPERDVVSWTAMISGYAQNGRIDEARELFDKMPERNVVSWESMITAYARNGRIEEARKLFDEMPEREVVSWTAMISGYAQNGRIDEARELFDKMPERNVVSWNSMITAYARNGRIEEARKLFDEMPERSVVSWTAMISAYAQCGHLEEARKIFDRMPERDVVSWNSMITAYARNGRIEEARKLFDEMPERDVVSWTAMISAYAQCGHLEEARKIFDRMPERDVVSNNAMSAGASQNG

T5: GFP-9S library array, motif 4 ND N98L;D124A (synthetic construct, N98L;D124A)
T5 chain: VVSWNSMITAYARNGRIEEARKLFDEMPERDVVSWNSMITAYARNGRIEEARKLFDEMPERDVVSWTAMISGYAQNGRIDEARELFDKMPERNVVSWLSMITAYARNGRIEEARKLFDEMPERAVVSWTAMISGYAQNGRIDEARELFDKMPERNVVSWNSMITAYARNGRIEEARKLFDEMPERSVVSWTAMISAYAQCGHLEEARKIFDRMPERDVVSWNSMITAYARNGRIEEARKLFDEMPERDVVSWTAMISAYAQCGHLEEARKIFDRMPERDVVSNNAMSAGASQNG

B1: Cy5-rpoA-G (ssRNA)
RNA: AUUAGACGUGA
B2: Cy5-rpoA (ssRNA)
RNA: AUUACACGUGA
B3: IR-rpoA-U (ssRNA)
RNA: AUUAUACGUGA
B4: IR-rpoA-A (ssRNA)
RNA: AUUAAACGUGA

Assays:
Experiment in all cases: high-throughput RNA pulldown from lysate on Ni-NTA beads; HRP: 50 mM Tris pH 8, 150 mM NaCl, 1 mM beta-mercaptoethanol, 50 ug/ml BSA, 3 ug/ml yeast RNA, 0.5% heparin; ITC and FP: Tris pH 8, 200 mM KCl, 5% glycerol; MST: 50 mM Tris pH 8, 200 mM NaCl, 1 mM DTT, BSA, heparin, 0.05% Tween 20
Conditions in all cases: tags: N-terminal His-eGFP
[1] = molecular target: T1, GFP-9S library array, motif 4 ND …
[2] = molecular target: T2, GFP-9S library array, motif 4 ND …
[3] = molecular target: T3, GFP-9S library array, motif 4 ND …
[4] = molecular target: T4, GFP-9S library array, motif 4 ND …
[5] = molecular target: T5, GFP-9S library array, motif 4 ND …

Row | Binder | Kd ([1]; label: 5' Cy5) [µM] | Kd ([2]; label: 5' Cy5) [µM] | Kd ([3]; label: 5' Cy5) [µM] | Kd ([4]; label: 5' Cy5) [µM] | Kd ([5]; label: 5' Cy5) [µM] | Kd ([1]; label: 5' IRDye 800CW) [µM] | Kd ([2]; label: 5' IRDye 800CW) [µM] | Kd ([3]; label: 5' IRDye 800CW) [µM] | Kd ([4]; label: 5' IRDye 800CW) [µM] | Kd ([5]; label: 5' IRDye 800CW) [µM]
1 | B1 | 0.0903 | 0.0777 | 0.0894 | 0.169 | 0.0714 |  |  |  |  | 
2 | B2 | 0.0924 | 0.0693 | 0.0751 | 0.248 | 0.0474 |  |  |  |  | 
3 | B3 |  |  |  |  |  | 0.113 | 0.0819 | 0.114 | 0.675 | 0.0434
4 | B4 |  |  |  |  |  | 0.107 | 0.0446 | 0.145 | 0.387 | 0.0909
